Assay results reported in patent US20080125364A1, “Methods and Compositions for Treating Epithelial Cancers” (priority 2004, published 2008).

B1: Occ: full-length human occludin with C-terminal myc-tag, stably expressed in Raf1-transformed Pa4 cells (protein, UniProt Q16625 1-522, looked up)
chain: MSSRPLESPPPYRPDEFKPNHYAPSNDIYGGEMHVRPMLSQPAYSFYPEDEILHFYKWTSPPGVIRILSMLIIVMCIAIFACVASTLAWDRGYGTSLLGGSVGYPYGGSGFGSYGSGYGYGYGYGYGYGGYTDPRAAKGFMLAMAAFCFIAALVIFVTSVIRSEMSRTRRYYLSVIIVSAILGIMVFIATIVYIMGVNPTAQSSGSLYGSQIYALCNQFYTPAATGLYVDQYLYHYCVVDPQEAIAIVLGFMIIVAFALIIFFAVKTRRKMDRYDKSNILWDKEHIYDEQPPNVEEWVKNVSAGTQDVPSPPSDYVERVDSPMAYSSNGKVNDKRFYPESSYKSTPVPEVVQELPLTSPVDDFRQPRYSSGGNFETPSKRAPAKGRAGRSKRTEQDHYETDYTTGGESCDELEEDWIREYPPITSDQQRQLYKRNFDTGLQEYKSLQSELDEINKELSRLDKELDDYREESEEYMAAADEYNRLKQVKGSADYKSKKNHCKQLKSKLSHIKKMVGDYDRQKT
modifications: full-length C-terminal myc-tag
notes: full-length human occludin with C-terminal myc-tag, stably expressed in Raf1-transformed Pa4 cells
B2: claudin-1: tight junction protein claudin-1 force-expressed in Pa4-Raf1 cells (protein, UniProt O95832 1-211, looked up)
Claudin-1: MANAGLQLLGFILAFLGWIGAIVSTALPQWRIYSYAGDNIVTAQAMYEGLWMSCVSQSTGQIQCKVFDSLLNLSSTLQATRALMVVGILLGVIAIFVATVGMKCMKCLEDDEVQKMRMAVIGGAIFLLAGLAILVATAWYGNRIVQEFYDPMTPVNARYEFGQALFTGWAAASLCLLGGALLCCSCPRKTTSYPTPRPYPKPAPSSGKDYV

Assays:
Pa4-Raf1 cells [1] = experiment: Transepithelial electrical resistance (TER) of monolayers on filter supports; type: cell-based, rat; settings: Pa4-Raf1 cells expressing the construct, after 5 days of culture on semi-permeable filter supports
Experimental: (§1) For transepithelial electrical resistance (TER) measurements, cells were plated on polycarbonate filters with a pore size of 0.4 μm. A Millicell-ERS volt-ohm meter (Millipore) was used to determine the TER value. All TER values were normalized for the area of the filter and were obtained by subtracting the contribution of the filter and bathing solution. Paracellular permeability to fluoresceinated dextran (FD-3; MW 3000) was assessed according to previously published methods (Sanders et al., 1995). Briefly, cells were grown on polycarbonate filters with a pore size of 0.4 μm. TER was measured and then cells were washed in Hanks balanced salt solution/10 mM HEPES (HBSS^+) and equilibrated at 37° C. for 10 min on an orbital shaker. Cells were loaded apically with 1 mg/ml FD-3 (Molecular Probes) at time=0. Basolateral samples were taken at t=0, 30, 60, 90 and 120 minutes, and fluorescence intensity was analyzed on a CytoFluor 2350 Fluorescence Measurement System (Millipore, Cambridge, Mass.). FD-3 concentrations transported were extrapolated from a standard curve (generated by diluting known concentrations of fluorescent tracer) and expressed as ng FD-3 transported/cm^2/hour. Numerical values from individual experiments were pooled and expressed as mean ±standard error of the mean. Data shown are representative of at least three experiments.

Pa4-Raf1 cells [2] = experiment: Cloning efficiency (anchorage-independent growth) in soft agarose; type: cell-based, rat; settings: Pa4-Raf1 cells expressing the construct, 4 weeks, colonies >0.4 mm counted
Experimental: Pa4 cells, Pa4-Raf1 cells and Pa4-Raf1 cells expressing full-length occludin or various occludin mutants were seeded a density of 1×10^4 cells per 35-mm culture dish in 1 ml of 0.35% (wt/vol) low melting point agarose solution diluted with complete medium. Dishes were coated with 1 ml of 0.7% (wt/vol) low melting point agarose before cell plating, and 1 ml of overlay medium was added after cell plating. The dishes were incubated at 35° C. in 5% CC>2 and 95% air for 4 weeks. The overlay medium was changed every 3 days. After 4 weeks, the cells were stained with 3-[4,5-dimethylthiazol-2-yl]-2,5-diphenyltetrazolium bromide (MTT; 0.05 mg/ml). The stained dishes were photographed, and colonies >0.4 mm in diameter were counted and analyzed.

Pa4-Raf1 cells [3] = experiment: Tumorigenicity in nude mice; type: in vivo; settings: Pa4-Raf1 cells expressing the construct, injected subcutaneously, 6 weeks post injection
Experimental: The nude mice were used to assay tumorigenicity in vivo. Pa4 cells, Pa4-Raf1 cells and Pa4-Raf1 cells expressing fall-length occludin or various occludin mutants were grown to logarithmic growth phase, harvested, washed, and resuspended in PBS for injection. Each of the cell lines (1×10^6 cells in 200 μl PBS) was injected subcutaneously into the flanks of four male nude mice. Tumor formation was monitored daily. All nude mice were sacrificed at six weeks, with tumors being isolated and analyzed.

Pa4-Raf1 cells [4] = experiment: Oligonucleotide microarray comparison of mRNA abundance; type: cell-based, rat; settings: for correction of Raf1-driven gene expression changes (mRNA abundance): forced expression in Pa4-Raf1 cells
Source text: Based upon internal quality control data, differential expression values greater than 1.5 obtained with Agilent Oligonucleotide microarrays are likely to be significant. Using this benchmark, we compared microarray data for entire rat genome obtained from Pa-4 cells before and after stable transfection with constitutively active Raf1 (Pa4-Raf1). […] Genes affected by active Raf1 in Pa4 cells included transcription factors, response elements, regulatory molecules, growth factor receptors, cell-cell contact proteins, and cytoskeletal elements that were consistent with those identified in other studies examining epithelial cell gene modulation associated with Ras/Raf/MAP kinase pathway activation. The strongest mRNA abundance profile shifts occurred in genes associated with cell polarity, proliferation and sensitivity to apoptotic stimuli. Numerous genes identified by the present studies have been previously reported as being targets of cell regulation in other cancer cell microarray studies.

Pa4-Raf1 cells [5] = experiment: Paracellular permeability to FD-3 (3 kDa FITC-dextran); type: cell-based, rat; settings: Pa4-Raf1 cells expressing the construct
Experimental: as §1

Pa4-Raf1 cells [6] = experiment: Phase contrast and immunofluorescence microscopy of cell morphology and junctional proteins; type: cell-based, rat; settings: Pa4-Raf1 cells expressing the construct, grown on plastic
Experimental: Cells grown on glass coverslips or on polycarbonate filters (NK, Costar, Cambridge, Mass., US) with a pore size of 0.4 μm were rinsed with HBSS containing calcium and magnesium (HBSS^+). Cells were fixed and permeabilized in absolute methanol for 20 min at −20° C., followed by blocking in HBSS^+ containing 5% normal goat serum (blocking buffer) for 1 h at room temperature and incubation for 60 min with primary antibodies to human occludin, claudin-1, and ZO-1, (Zymed Laboratories, San Francisco, Calif.), E-cadherin (BD Biosciences) in blocking buffer. Cells were then washed, incubated for 60 min with Alexa dye-conjugated secondary antibodies (Molecular Probes, Eugene, Oreg.), followed by rinsing and mounting on slides with PROLONG ANTIFADE medium (Molecular Probes). For double labeling of junctional proteins, cells were fixed and permeabilized in absolute methanol and blocked in blocking buffer. Cells were sequentially stained with two primary antibodies. Donkey anti-goat and anti-rabbit antibodies conjugated to fluorescent red or green Alexa dyes (Molecular Probes) were used for detection of the respective primary antibodies. Stained cells were scanned using a Zeiss LSM510 laser scanning confocal microscope (Zeiss Microimaging Inc., Thornwood, N.Y.) coupled to a Zeiss 100M axiovert and 40× or 63× Pan-Apochromat oil lenses. […]

Molecule	transepithelial electrical resistance (TER) (Pa4-Raf1 cells [1])	average number of colonies on soft agarose (Pa4-Raf1 cells [2])	tumor formation (Pa4-Raf1 cells [3])	growth factor binding protein mRNA up-regulation (Pa4-Raf1 cells [4]; Pa4 Raf1 cells, forced occludin expression)	aquaporin-1 mRNA levels (Pa4-Raf1 cells [4]; Raf1-induced nearly 4-fold increase)	correction of Raf1-driven gene expression changes (mRNA abundance) (Pa4-Raf1 cells [4])	correction of Raf1 gene modifications of Table 1 (Pa4-Raf1 cells [4]; genes of Table 1)	REX-3 mRNA abundance (Pa4-Raf1 cells [4]; up-regulated 37-fold by Raf1)	FD-3 flux rate (Pa4-Raf1 cells [5])	rescue of epithelial cell morphology (Pa4-Raf1 cells [6])	rescue of epithelial cell morphology (Pa4-Raf1 cells [6]; listed as full-length occludin)
B1	> 900 O-cm^2	5 colonies	failed to produce tumors	35 fold	corrected	remarkable reversal of essentially all of the genomic changes	corrected	down-regulated by occludin to an equivalent extent	−1,500 ng/cm^2/hr	recovered epithelial morphology	tightly clustered colonies
B2	–	–	–	–	–	fails to affect correction of gene modifications	–	–	–	–	–
